According to the nanobody polyreactivity screen of Harvey et al. (2022):

Assay: yeast display, Sf9 membrane polyspecificity reagent, FACS + sequencing; frameworks hold sequencing errors
Method in brief: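 Using colony PCR, genes from sorted yeast display clones were amplified, then sequenced on MiSeq at 2 × 250 and filtered by CDR length. The clones had been stained with 10% biotinylated, detergent-solubilized Sf9 membrane reagent for 1 hour at 4 °C and sorted by FACS into low and high (top ~1%) gates on anti-HA and streptavidin fluorescence. Polyreactivity labels come from the gate of origin.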

With “QFQLVESGGGLVQAGGSLRLRCAPSGNTLIVKAMGWYRQAPGKEMELVAAITRDGRTNYADSVKGRFTISRDNAKNTVYLQMNSLKPEDTAVYYCAAEGVPDALDRDYWGQGTQVTVSS” the “polyreactivity (PSR sort gate)” value was “low polyreactivity”.

In the case of “QAQLQESGGSLVQAGGGLRLSCAASGYISVGSVMGWYRQAPSKERELVASIDQGANTNYADSVKGRFTISRDNAKNNVYLQMNSLKPEDTAVYYCATVTTYILNYWGQGTQVTVCS”, the “polyreactivity (PSR sort gate)” value is reported as “low polyreactivity”.

With “QVQLVESGGGLVQAGGSLRLSCAASGRIFDDYAMGWYRQAPGKERELVAAISSSGGSTYYADSVKGRFTISRDNAKNTVYLQMNSLKPEDTAVYYCARYPPGRRRYEYWGQGTQVTVSS” the “polyreactivity (PSR sort gate)” value was “high polyreactivity”.

For “QVQLVESGGRLVQAGGSLRLSCAASGIIFRFYPMGWSRQAPGKERELVAAIRTSGGSTYYADSVKGRFTISRDNAKNTVYLQMNSLKPEDTAVYYCAAGPRAYSYRIYALYYWGQGTQVTVSS”, the “polyreactivity (PSR sort gate)” value was “high polyreactivity”.

With “QVQLVESGGGLVQAGGSLRLSCAASGITFDENTMGWYRQAPGKERELVAAITEIGGSTYYADSVKGRFTISRDNAKNTVYLQMNSLKPEDTAVYYCNAARWVVRFVDYEYWGQGTQVTVSS” the “polyreactivity (PSR sort gate)” value was “low polyreactivity”.

In the case of “QVQLVESGGGLVQAGGSLRLSCAASRRTFGYYAMGWYRKAPGKEREMVAAIRSTGSTNYADSVKGRFTISRDNAKNSVYLQMNCLKPEDTAVYYCNAKRRFRYDYWGLGTQVTVSS”, the “polyreactivity (PSR sort gate)” value is reported as “low polyreactivity”.

With “QDLLVESAGGLVQAGGSLRLSCAASGRNFPYKAMGWYRPAPGKERELVAAISSGGSTNYADSVKGRFTTSRDNAKNTVYLQMNSLKPEDTAVYYCAVGYSYYPSDEFDYWGQGTQVTVSS” the “polyreactivity (PSR sort gate)” value was “low polyreactivity”.

For “QVQLVESGGGLVQAGGSLRLSCAASGSTFPDYSKGWYRQAPGKERLLVADITYGGSSTYYADSVKGRFTISSDNAKNTVYLQMNSLKPDDTAVYYCAADTDYYTLIRSVLAYDYWGQGTQVTVSS”, the “polyreactivity (PSR sort gate)” value was “low polyreactivity”.

With “QVQLVESGGGLVQAGGSLRLSCAASGSIFSLNAMGWYRQAPGKERELVAAINSGGTSTYYADSVKGRFTMSRDNAKNTVYLHMKSLKPEDTAVYYCAKRQRDYSSVFDVDYWGQGTQVTVSS” the “polyreactivity (PSR sort gate)” value was “low polyreactivity”.

With “QVQLVESGGGLVQAGGSLRLSCAASGFTFGSYAMGWYRQAPGKERELVAAITCSGGSTYYADSVKGRFTISRDNAKNTVYLQMNSLKPEDTAVYYCNADVAGGYGWKSYHGYDYWGQGTQVTVSS” the “polyreactivity (PSR sort gate)” value was “high polyreactivity”.

With “QVQLVESGGGLVQAGGSLRLSCAASGRIFAYYAMGWYRPAPGIERELVATIRGGGSTNYADSVKGRFTISRDNAKNTVYLQMNSLKPEATAVYYCAKPGAKWRGFDYWGLGTQVTVSS” the “polyreactivity (PSR sort gate)” value was “low polyreactivity”.

In the case of “QVQHVESGGGLVQAGGSLRLSCAASGIIFGSNVMGWYRQAPGKERELVAAISYSGASTYYADSVKGRFTISRDNAKNTVYLQMNSLKPEDTAVYYCAADGHRNGYYYHEYDSWGQGTQVTVSS”, the “polyreactivity (PSR sort gate)” value is reported as “low polyreactivity”.

In the case of “QVQLVESGGGLVQAGGSLRLSCAASGNIFYAYAMGWYRQAPGKEREFVAAITKNGGSTYYADSVKGRFTISRDNAKNTVYLQMISLKPEYTAVYYCTAGGVYPRFTFLEQGYEMDYWGQGTQVTVSS”, the “polyreactivity (PSR sort gate)” value is reported as “low polyreactivity”.

With “QDQLVESVGGVVQAGGSLRLSGAASGIIFVAYAMGWYRQAPGKERELVASITYSGGSTNYADSVKGRFTISRDNAKNTVYLQLNSLQPEETAVDYCARDRDPVYASVLWDDYGYWGQGTQVTVSS” the “polyreactivity (PSR sort gate)” value was “low polyreactivity”.

For “QVQHVESGGGLVQAGGSLRLSCAASGSTFYINAKGWYRQAPGKEREFVASISWRGGSTYADSVKGRFTISRDNAKNTVYLQMNSLKPEDTAVYFCAAEFDVYSHHWITSYDYWGQGTQVTVSS”, the “polyreactivity (PSR sort gate)” value was “high polyreactivity”.

For “QVQLVESGGGLVQAGGSLRLSCAASGSTFAYYAMGWYRQAPGKERELVAVISVRVGSTYYADSVKGRFTISRDNAKNTVYLQMNSLNPEDTAVYYCATDFFYHSLSSRQDGDYWGQGTQVTVSS”, the “polyreactivity (PSR sort gate)” value was “high polyreactivity”.

With “QVQLVESGGGLVQAGGSLRLSCAASGSIFFKYAMGWYRQAPGKEREMVAAITWSGGRTYYADSVKGRFTISRDNAKNTVYLQMNSLKPEDTAVYYCNAYSIGVAAADDYWGQGTQVTVSS” the “polyreactivity (PSR sort gate)” value was “high polyreactivity”.

For “QVQLVESGGGLVQAGGSLRLSCAASGIFFIYSMGWYRQAPGKERELVADIDSGGPTYYADSVKGRFTISRDNAKNTVYLQMNSLKPEDTAVYYCAVDYSNVDLYSLLFYESDYWGQGTQVTVSS”, the “polyreactivity (PSR sort gate)” value was “low polyreactivity”.

In the case of “QVQLVESGGGLVQAGGSLRLSCAASGSIFLKYAMGWYRQAPGKERELVAAISSRGGSTYYADSVKGRFTISRDNAKNTVYLQMNSLKPEDTAVYYCAAKRWPGTDGYWGQGTQVTVSS”, the “polyreactivity (PSR sort gate)” value is reported as “high polyreactivity”.

For “QVQLVESGGGLVQAGGRLRLSCAASGRTFYWYAMGWYRQAPGKETELVAAISSGGSTYYADSVKGRFTISRDNAKNTVYLQMNSLKPEDTAVYYCAAVTPSGAHRSAYHPISDYWGQGTQVTVSS”, the “polyreactivity (PSR sort gate)” value was “low polyreactivity”.

In the case of “QVQLVESGGGLVQAGGSLRLSCAASGSTFVYYAMGWYRQAPGKERELVAVITWSGGRTYYADSVKGRFTISRDNAKNTVYVLMNSLKPEDTAVYYCAARYPGYQYGLDYWGEGTQVTVSS”, the “polyreactivity (PSR sort gate)” value is reported as “high polyreactivity”.

With “QVQLVESGGGLVQAGGSLRLSCAASGSTFYSYTMGWYRQAPWKERELVATISWSGSSTYYADSVKGRFTISRDNAKNTVYLQMNSLKPEDTAVYYCAAEWDESYSYRRYRHYDYWGQGTQVTVSS” the “polyreactivity (PSR sort gate)” value was “low polyreactivity”.

With “QVQLVESGGGLVQAGGSLRLSCAASGITFDIYAMGWYRQAPGKVRELVAAISGSDGSTYYADSVKGRFTISRDNAKNTVYLQMNSLKPEDTAVYYGAAESEYAGTYESDYWGLGTQVTVSS” the “polyreactivity (PSR sort gate)” value was “low polyreactivity”.

For “QVQLVESGGGLVQAGGSIRLSSAASGFTFYPYMGWYRQAPVKERELVATITWIGDDTYYADSVKGRFTISRDNAKNTVYLQMNSLKPEDTAVYYCNTDVDDTLYYSPMDYWGQGTQVTVSS”, the “polyreactivity (PSR sort gate)” value was “low polyreactivity”.

In the case of “QVQLVESGAGLVQAGGSLRLSCAASGRIFGYYAMGWYRQAPGKERELVAAITRGGSTYYADSVKGRFTISRDNAKHTVYLQMNSLKPEDTAVYFCAANISGLVKYENDYWGQGTQLTVSS”, the “polyreactivity (PSR sort gate)” value is reported as “low polyreactivity”.

In the case of “QVQLEESGGGLVQAGGSLRLSCAASGYTFSHYAIGWYRQAPGKERELVAGITWSGGSTYYADSVKGRFTISRDYAKNTVYLQMNSLKPEDTSVYYCAAKYYWYYSYSGIPLFDYWGQGTQVTVSS”, the “polyreactivity (PSR sort gate)” value is reported as “low polyreactivity”.

For “QVQLVESGGGLVQAGGSLRLSCAASGFIFWTYAMGWYRQAPGKERELVARISWSGGSTYYADSVKGRFTISRDNAKNTVYLQMNSLKPEDTAVYYCARLATLYESIEYDYWGHGTQVTVSS”, the “polyreactivity (PSR sort gate)” value was “low polyreactivity”.

In the case of “QVQLVESGGGLVQAGGSLRLSCAASGSIFVPYAMGWYRQAPGKERELVAAISSGGGRTYYADSVKGRFTIARDNAKNTVYLQMNSLKPEDTAVYYCAARYYIGYGHRTYGYDYWGQGTQVTVSS”, the “polyreactivity (PSR sort gate)” value is reported as “high polyreactivity”.

With “QVQLVDSGGGLVQAGGRLRLSCAASGLIFSYYARGRYRQGPRKERELVPAISSGGRTSYADSVKGRFTISRDNEKNTVYLKMNSVKPEASAVYYCAAYPVYNRPGDYWGQGTQVTVSS” the “polyreactivity (PSR sort gate)” value was “high polyreactivity”.

For “QVQLVESGGGLVQAGGSLRLSCAASGRTFSGNTMVWYRQAPGKERELVAAITGRGGSTYYADSVKGRFTISRDNAKNTVYLQMNSKKPEDTAVYYCAALRYTFAGRFDYWGQGTQVTVSS”, the “polyreactivity (PSR sort gate)” value was “high polyreactivity”.

With “QVQLVESGRGVVQAGGSLRLSRADSGIIFLDHAMGWYRQAPGKEWELVAGINGGGRTDYADSVQGRFTISRDNAKNTVYLQMNSLTPEDTAVYYCAAESSWYSPDVNFWGQGTQVTVSS” the “polyreactivity (PSR sort gate)” value was “low polyreactivity”.

With “QVQLVESGGGLVQAGGSLRLSCAASGFTFFYNAMGWYRQAPGKEREFVAAISGRGGTTYYADSVKGRFTISRDNAKNTVYLQMNSLKPEDTAVYYCAARSVSTLRYTSRKLRYDYWGQGTQVTVSS” the “polyreactivity (PSR sort gate)” value was “high polyreactivity”.

With “QVQIVESGGGLVQAGGSLRLSCAASGFTIPRYAMGWYRQAPGKERELVAAISRAGRTYYADSVKGRFTISRDNAKNTVYLLMTSLKPEDTAVYYCNSQYLKPGDYWGHGTQVTVSS” the “polyreactivity (PSR sort gate)” value was “high polyreactivity”.

With “HVQLVESGGGLVQAGGSLRLSCAASGSIFVLNAMGWYRQAPGKERELVAAITNVGSTYYADSVKGRFTISRDNAKNTVYLQMNSLKPEDTAVYYCNADPGEVLVGYDYWGQGTQVTVSS” the “polyreactivity (PSR sort gate)” value was “low polyreactivity”.

In the case of “QVQLVESGGGLVEAGGSLRLICAASGSTFGWYAMGWSRQAPGKEREFVAAISWSGTSTYYADSVKGRFTISRDNAKNTVYLQMNSLKPEDTAVYYCNARSKRANRSLGLGYWGQGTQVTVSS”, the “polyreactivity (PSR sort gate)” value is reported as “low polyreactivity”.

For “KVHLVESGGGLVQAGGSLRLSCPAAGFTLDQYAMGWYRQAPGKEMELVAVITSGVNTYYADSVKGRFTISRDNAKNTVYLQMNSLKPEDTAVYYCAKDVCDPFYDPFEYWGQGTQVTVSS”, the “polyreactivity (PSR sort gate)” value was “low polyreactivity”.

For “QVQLVESGGGLVQAGGSLRLSCAASGRTFLVYTMGWYRQAPGKERELVAAISWSDGSTYYADSEKGRFTISRDNAKNTVYLQMNSLKPEDTAVYYCAARRTGYLYRYGYWGQGTQVTVSS”, the “polyreactivity (PSR sort gate)” value was “low polyreactivity”.

In the case of “QVQLVESGGGLVQAGGSLRLSCAASGRTFFYYAMGWYRQAPGKERELVAGITSTGSSTYYADSVKGRFTISRDNAKNTLYLQMNSLKPEDTAVYYCAADRYTTYSGQWSYPYDYWGQGTQVTVSS”, the “polyreactivity (PSR sort gate)” value is reported as “low polyreactivity”.

In the case of “QVQLVESGGGLVQAGGRLRLSCPPSGVTFTRNAMGWYRQAPGKERELVAAISSSAGSTSYADSVKGRLTISRDNAKNTVYLQMNSLKPEDTAVYYCATEGSYYSWVGKVGYRYQYHYWGHGTQVTVSS”, the “polyreactivity (PSR sort gate)” value is reported as “high polyreactivity”.

In the case of “QVQLVESGGGLVQAGGSIRLSCAASGRTFDGNALGWYRKAPGKERELVAAITSGGSTNYAYSVKGRFTISRDNAKNTVYVQRNSLKPEDTAVYYCAAERWYGYSHSDFGYWGQGTQVTVSS”, the “polyreactivity (PSR sort gate)” value is reported as “high polyreactivity”.

With “QVQLVESGGGLVQAGGSLRLSCAASGFTFAKYAMGWYRQAPGKERELVAAISSNGGTTYYADSVKGRFTISRDNAKNTDYLQMNSLKPEDTALYYCAAYTYRRPSTFTKVAFDYWGQGSQVTVSS” the “polyreactivity (PSR sort gate)” value was “high polyreactivity”.

With “QVQLVESGGGLVQAGGSLRLSCAASGGTFQPNAMGWYRQAPGKERELVAAISWSDGSTYYADSVKGRFTISRDNAKNTVYLQMNSLKPEDTAVYYCAADFTYYDSPYRDYNYESWGQGTQVTVSS” the “polyreactivity (PSR sort gate)” value was “low polyreactivity”.

With “QVQLVESGGGLVQAGGSLRLSCAASGLIFAGNDMGWYRQAPGKERELVARITNGGGSTYYADSVKGRFTISRDNAKNTVYLQMNSLKPEDTAVYYCNAGRSSGYSYDSWGPGTQVTVSS” the “polyreactivity (PSR sort gate)” value was “low polyreactivity”.
